Tested on: pancreatic islets
Test: Ki67 staining of cell proliferation in pancreatic islets
Type: in vivo, mouse
Description: Ki67 staining was used to detect cell proliferation in pancreatic islets from GCGR-antibody treated mice. Cell proliferation was negligible in islets from control antibody treated mice and in non-Gcg(+) islet cells from GCGR-antibody treated mice (FIG. 3A). However, Ki67 staining was detected in GCG(+) cells from the GCGR-antibody treated mice (FIG. 3A).

B1: α-GCGR: potent monoclonal GCGR blocking antibody, HCVR/LCVR SEQ ID NOs: 86/88 (antibody, V domains shown)
VH: EVQLVESGGGLVQPGGSLRLSCAASGFTFSNYLMNWVRQAPGKGLEWLANIQEDGIEKYYVDSVKGRFTISRDNAKNSLYLQMNSLRAEDTAVYYCAREPSHYDILTGYDYYYGMDVWGQGTTVTVS
VL: DIQMTQSPSSLSASVGDRVTITCRASQGIRNDLGWYQQKPGKAPKRLIYAASSLQSGVPSRFSGSGSGTEFILTVSSLQPEDFATYYCLQYNSNPFTFGPGTKVDIK
For B1, the “proliferation rate in Slc38a5(+) relative to Slc38a5(−) α-cells” value (GCGR-antibody treated mice, 11 days) was 4 times and the “Ki67 staining in GCG(+) cells” value (mice treated 11 days) was “detected”.

Source: US20190248888A1, “METHODS OF LOWERING BLOOD GLUCOSE LEVELS” (Regeneron Pharmaceuticals, Inc., priority 2016, published 2019)
